B1: mRNA-splicing (parent)
chain: AGUUGCUGCUGGGAGCUCCAGCACAGUGAAAUGGACAGAAGGGCAGAGCAA

Variants of: B1
Assay: exon inclusion enrichment index; higher = more inclusion; WT1 exon 5 minigene, HEK293

| Variant | exon inclusion enrichment index |
| --- | --- |
| AGUUGAAGAAGGGAGCUCCAGCACAGUAGAAUGGACAGAAGGGCAGAGCAA | 0.227 |
| AGUUGAAGAAGGGAGCUCCAGCACAGUACAAUGGACAGAAGGGCAGAGCAA | 0.433 |
| AGUUGAAGAAGGGAGCUCCAGCACAGUAUAAUGGACAGAAGGGCAGAGCAA | 0.156 |
| AGUUGAAGAAGGGAGCUCCAGCACAGUGAAAUGUGCAGAAGGGCAGAGCAA | 0.134 |
| AGUUGAAGAAGGGAGCUCCAGCACAGUGAAAUGUCCAGAAGGGCAGAGCAA | 0.203 |
| AGUUGAAGAAGGGAGCUCCAGCACAAAGAAAUGGACAGAAGGGCAGAGCAA | 0.813 |
| AGUUGAAGAAGGGAGCUCCAGCACAACGAAAUGGACAGAAGGGCAGAGCAA | 2.37 |
| AGUUGAAGAAGGGAGCUCCAGCACAAGGAAAUGGACAGAAGGGCAGAGCAA | 1.32 |
| AGUUGAAGAAGGGAGCUCCAGCACAGUUGAAUGGACAGAAGGGCAGAGCAA | 0.627 |
| AGUUGAAGAAGGGAGCUCCAGCACAGUUUAAUGGACAGAAGGGCAGAGCAA | 0.122 |
| AGUUGAAGAAGGGAGCUCCAGCACAGUUCAAUGGACAGAAGGGCAGAGCAA | 0.539 |
| AGUUGAAGAAGGGAGCUCCAGCACAUGGAAAUGGACAGAAGGGCAGAGCAA | 1.76 |
| AGUUGAAGAAGGGAGCUCCAGCACAUAGAAAUGGACAGAAGGGCAGAGCAA | 0.264 |
| AGUUGAAGAAGGGAGCUCCAGCACAUCGAAAUGGACAGAAGGGCAGAGCAA | 2.22 |
| AGUUGAAGAAGGGAGCUCCAGCACAGUGAAAUGAGCAGAAGGGCAGAGCAA | 0.208 |
| AGUUGAAGAAGGGAGCUCCAGCACAGUGAAAUGACCAGAAGGGCAGAGCAA | 0.52 |
| AGUUGAAGAAGGGAGCUCCAGCACAGUGAAAUGAUCAGAAGGGCAGAGCAA | 0.216 |
| AGUUGAAGAAGGGAGCUCCAGCACAGUGAAAUGAACAGAAGGGCAGAGCAA | 0.344 |
| AGUUGAAGAAGGGAGCUCCAGCACAGUGAAAUGCACAGAAGGGCAGAGCAA | 0.179 |
| AGUUGAAGAAGGGAGCUCCAGCACAGUGAAAUGUACAGAAGGGCAGAGCAA | 0.123 |
| AGUUGAAGAAGGGAGCUCCAGCACAGUGAAAUCUACAGAAGGGCAGAGCAA | 0.522 |
| AGUUGAAGAAGGGAGCUCCAGCACAGUGAAAUCCACAGAAGGGCAGAGCAA | 0.353 |
| AGUUGAAGAAGGGAGCUCCAGCACAGUGAAAUCAACAGAAGGGCAGAGCAA | 0.421 |
| AGUUGAAGAAGGGAGCUCCAGCACAGUCCAAUGGACAGAAGGGCAGAGCAA | 0.683 |
| AGUUGAAGAAGGGAGCUCCAGCACAGUCGAAUGGACAGAAGGGCAGAGCAA | 1.45 |
| AGUUGAAGAAGGGAGCUCCAGCACAGUCUAAUGGACAGAAGGGCAGAGCAA | 0.358 |

| Variant | exon inclusion enrichment index |
| --- | --- |
| AGUUGAAGAAGGGAGCUCCAGCACAUUGAAAUGGACAGAAGGGCAGAGCAA | 0.794 |
| AGUUGAAGAAGGGAGCUCCAGCACAAUGAAAUGGACAGAAGGGCAGAGCAA | 1.08 |
| AGUUGAAGAAGGGAGCUCCAGCACACUGAAAUGGACAGAAGGGCAGAGCAA | 1.1 |
| AGUUGAAGAAGGGAGCUCCAGCACACGGAAAUGGACAGAAGGGCAGAGCAA | 2.09 |
| AGUUGAAGAAGGGAGCUCCAGCACACCGAAAUGGACAGAAGGGCAGAGCAA | 2.32 |
| AGUUGAAGAAGGGAGCUCCAGCACACAGAAAUGGACAGAAGGGCAGAGCAA | 0.842 |
| AGUUGAAGAAGGGAGCUCCAGCACAGUCAAAUGGACAGAAGGGCAGAGCAA | 0.528 |
| AGUUGAAGAAGGGAGCUCCAGCACAGUUAAAUGGACAGAAGGGCAGAGCAA | 0.147 |
| AGUUGAAGAAGGGAGCUCCAGCACAGUAAAAUGGACAGAAGGGCAGAGCAA | 0.174 |
| AGUUGAAGAAGGGAGCUCCAGCACAGUGAAAUUUACAGAAGGGCAGAGCAA | 0.0929 |
| AGUUGAAGAAGGGAGCUCCAGCACAGUGAAAUUAACAGAAGGGCAGAGCAA | 0.0617 |
| AGUUGAAGAAGGGAGCUCCAGCACAGUGAAAUUCACAGAAGGGCAGAGCAA | 0.221 |
| AGUUGAAGAAGGGAGCUCCAUCACAGUGAAAUGGACAGAAGGGCAGAGCAA | 0.507 |
| AGUUGAAGAAGGGAGCUCCAGCACAGUGAAAUUGACAGAAGGGCAGAGCAA | 0.2 |
| AGUUGAAGAAGGGAGCUCCAGCACAGUGAAAUAGACAGAAGGGCAGAGCAA | 0.0584 |
| AGUUGAAGAAGGGAGCUCCAGCACAGUGAAAUCGACAGAAGGGCAGAGCAA | 1.04 |
| AGUUGAAGAAGGGAGCUCCAGCACAGUGAAAUGCGCAGAAGGGCAGAGCAA | 0.484 |
| AGUUGAAGAAGGGAGCUCCAGCACAGUGAAAUGCCCAGAAGGGCAGAGCAA | 0.0588 |
| AGUUGAAGAAGGGAGCUCCAGCACAGUGAAAUGCUCAGAAGGGCAGAGCAA | 0.104 |
| AGUUGAAGAAGGGAGCUCCAGCACAGUGAAAUACACAGAAGGGCAGAGCAA | 0.0943 |
| AGUUGAAGAAGGGAGCUCCAGCACAGUGAAAUAAACAGAAGGGCAGAGCAA | 0.0545 |
| AGUUGAAGAAGGGAGCUCCAGCACAGUGAAAUAUACAGAAGGGCAGAGCAA | 0.0565 |
| AGUUGAAGAAGGGAGCUCCAUGACAGUGAAAUGGACAGAAGGGCAGAGCAA | 0.565 |
| AGUUGAAGAAGGGAGCUCCAUAACAGUGAAAUGGACAGAAGGGCAGAGCAA | 0.136 |
| AGUUGAAGAAGGGAGCUCCAUUACAGUGAAAUGGACAGAAGGGCAGAGCAA | 0.172 |
